Experimental data reported in patent publication US20230390189A1, “OCULAR IMPLANT CONTAINING AN ACTIVE INGREDIENT” (OCULAR THERAPEUTIX, INC., priority 2020, published 2023).

Key:
[1] = cited from earlier work; for t1/2 in the human eye: in vivo
[2] = Solubility of axitinib; assay type: physicochemical
[3] = 1.25 mg intravitreal; cited from earlier work
[4] = test system: VEGF-induced vascular leakage; experiment: VEGF challenge, vascular leakage scored by fluorescein angiography; assay type: in vivo, Dutch belted rabbits; settings: 1.25 mg Avastin alone (group 3); similar degree as control

For “aflibercept: anti-VEGF agent, large molecule”, the “t1/2 in the human eye” value [1] is given as “several days”.
For `CNC(=O)c1ccccc1Sc1ccc2c(/C=C/c3ccccn3)n[nH]c2c1` [axitinib, N-methyl-2-[3-((E)-2-pyridin-2-yl-vinyl)-1H-indazol-6-ylsulfanyl]-benzamide], the “Clearance half-life (t1/2)” value ([1]; patients, oral (Rugo et al.)) is given as “a few hours” and the “Solubility of axitinib in 25% ethanol/75% water mix (v/v)” value [2] is given as “approximately 19 μg/mL”.
For “ranibizumab: anti-VEGF agent, large molecule”, the “t1/2 in the human eye” value [1] is listed as “several days”.
For “Avastin: anti-VEGF therapeutic, 1.25 mg intravitreal”, the Half-life in rabbits [3] is listed as 158 h and the “Vascular leakage after VEGF challenge, late” value [4] is listed as “after 3 months vascular leakage re-occurred”.
